Paper PMC6531468

Experiments:
[1] = molecular target: IMP3 KH3-4 (Homo sapiens) (UniProt O00425); assay: SELEX; conditions: round 4
[2] = molecular target: IMP3 KH1-2 (Homo sapiens) (UniProt O00425); assay: SELEX; conditions: round 4
[3] = molecular target: IMP3 KH1-4 (Homo sapiens) (UniProt O00425); assay: SELEX; conditions: round 4
[4] = molecular target: IMP3 RRM1-2 (Homo sapiens) (UniProt O00425); assay: SELEX; conditions: round 2
[5] = molecular target: IMP3 full length (Homo sapiens) (UniProt O00425); assay: SELEX; conditions: round 4
IMP3 full length (Homo sapiens), sequence (O00425 whole entry): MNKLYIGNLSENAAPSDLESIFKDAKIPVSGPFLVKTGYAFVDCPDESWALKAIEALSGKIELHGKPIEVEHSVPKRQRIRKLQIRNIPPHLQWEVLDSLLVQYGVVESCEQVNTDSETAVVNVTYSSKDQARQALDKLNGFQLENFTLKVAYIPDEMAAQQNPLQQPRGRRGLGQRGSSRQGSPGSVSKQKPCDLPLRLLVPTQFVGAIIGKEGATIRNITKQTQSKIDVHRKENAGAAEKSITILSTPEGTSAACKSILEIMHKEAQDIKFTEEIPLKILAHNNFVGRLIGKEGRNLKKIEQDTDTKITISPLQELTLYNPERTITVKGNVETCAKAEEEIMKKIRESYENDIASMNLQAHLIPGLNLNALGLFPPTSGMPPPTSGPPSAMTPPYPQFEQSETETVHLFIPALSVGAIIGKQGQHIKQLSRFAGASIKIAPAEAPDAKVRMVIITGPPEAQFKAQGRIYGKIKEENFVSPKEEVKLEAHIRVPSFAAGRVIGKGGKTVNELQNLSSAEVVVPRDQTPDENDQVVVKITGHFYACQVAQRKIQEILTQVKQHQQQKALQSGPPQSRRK

[6] = molecular target: IMP3 full length (Homo sapiens) (UniProt O00425); assay: EMSA; conditions: Hill n 3.1; EMSA: 10 mM Tris-HCl pH 7.5, 150 mM NaCl, 0.5 mM EDTA, 0.5 mM DTT, 0.1% NP-40, 5% glycerol, tRNA+BSA, 5 nM RNA, 30 min RT then ice; ITC/NMR: 20 mM Bis-Tris …

IMP3 KH3-4 (Homo sapiens), sequence (O00425 377-579): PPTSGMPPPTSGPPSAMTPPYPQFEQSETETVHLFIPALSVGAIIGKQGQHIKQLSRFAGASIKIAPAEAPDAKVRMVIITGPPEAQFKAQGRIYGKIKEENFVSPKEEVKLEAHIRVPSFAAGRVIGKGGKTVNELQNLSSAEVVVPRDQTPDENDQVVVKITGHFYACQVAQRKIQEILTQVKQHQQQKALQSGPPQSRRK
IMP3 KH1-4 (Homo sapiens), sequence (O00425 164-579): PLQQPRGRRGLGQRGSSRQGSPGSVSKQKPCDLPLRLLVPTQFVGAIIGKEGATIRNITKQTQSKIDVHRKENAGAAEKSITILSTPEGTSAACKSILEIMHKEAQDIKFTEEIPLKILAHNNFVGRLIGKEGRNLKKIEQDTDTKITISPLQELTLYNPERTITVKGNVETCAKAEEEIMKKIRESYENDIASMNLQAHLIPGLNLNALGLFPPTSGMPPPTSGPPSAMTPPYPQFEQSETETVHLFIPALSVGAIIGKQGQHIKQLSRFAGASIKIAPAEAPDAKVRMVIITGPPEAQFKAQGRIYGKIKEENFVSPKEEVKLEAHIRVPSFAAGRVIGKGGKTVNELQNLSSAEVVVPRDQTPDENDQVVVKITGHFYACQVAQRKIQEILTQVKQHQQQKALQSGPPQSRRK
IMP3 RRM1-2 (Homo sapiens), sequence (O00425 1-163): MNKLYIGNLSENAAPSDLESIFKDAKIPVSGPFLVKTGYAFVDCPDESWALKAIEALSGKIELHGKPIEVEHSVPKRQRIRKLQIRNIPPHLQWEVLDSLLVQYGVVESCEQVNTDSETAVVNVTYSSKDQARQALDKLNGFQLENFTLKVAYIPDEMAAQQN
IMP3 KH1-2 (Homo sapiens), sequence (O00425 164-376): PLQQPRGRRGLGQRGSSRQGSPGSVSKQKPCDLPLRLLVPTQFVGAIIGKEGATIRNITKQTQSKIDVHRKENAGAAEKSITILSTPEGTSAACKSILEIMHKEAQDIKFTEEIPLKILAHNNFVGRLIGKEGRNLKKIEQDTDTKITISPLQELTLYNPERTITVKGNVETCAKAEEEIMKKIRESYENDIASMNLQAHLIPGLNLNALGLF

Row | Substance | binding signal (SELEX z-score, GST-corrected) [1] | binding signal (SELEX z-score, GST-corrected) [2] | binding signal (SELEX z-score, GST-corrected) [3] | binding signal (SELEX z-score, GST-corrected) [4] | binding signal (SELEX z-score, GST-corrected) [5] | also measured
1 | AAAUAA [6-mer AAATAA] | 3.39 | – | – | – | – | –
2 | AACACA [6-mer AACACA] | – | 4.09 | 2.92 | 5.77 | 4.2 | –
3 | AACAUA [6-mer AACATA] | 3.48 | 2.92 | – | – | – | –
4 | AAUAAA [6-mer AATAAA] | 3.28 | – | – | – | – | –
5 | AAUAAU [6-mer AATAAT] | 3.24 | – | – | – | – | –
6 | AAUACA [6-mer AATACA] | 3.32 | 3.44 | 2.77 | – | – | –
7 | AAUAUA [6-mer AATATA] | 3.67 | – | – | – | – | –
8 | AAUCAU [6-mer AATCAT] | – | – | – | 3.82 | – | –
9 | AAUGAA [6-mer AATGAA] | 3.19 | – | – | – | – | –
10 | AAUUAA [6-mer AATTAA] | 3.41 | – | – | – | – | –
11 | ACAACA [6-mer ACAACA] | – | 2.86 | – | 3.86 | – | –
12 | ACAAUA [6-mer ACAATA] | 3.13 | 3.75 | 2.68 | – | – | –
13 | ACACAA [6-mer ACACAA] | – | – | – | 4.19 | – | –
14 | ACACAC [6-mer ACACAC] | – | 3.26 | – | 5.19 | – | –
15 | ACACAU [6-mer ACACAT] | – | 3.81 | 3.27 | 4.49 | 3.99 | –
16 | ACAUAA [6-mer ACATAA] | 3.74 | 3.61 | 2.92 | – | – | –
17 | ACAUAU [6-mer ACATAT] | 3.36 | 2.92 | 2.88 | – | – | –
18 | ACAUCA [6-mer ACATCA] | – | – | – | 3.94 | 4.02 | –
19 | ACGGCA [6-mer ACGGCA] | – | – | 3.02 | – | 4.07 | –
20 | AUAACA [6-mer ATAACA] | 4.15 | 3.77 | 3.19 | – | – | –
21 | AUAAUA [6-mer ATAATA] | 3.54 | – | – | – | – | –

Row | Substance | binding signal (SELEX z-score, GST-corrected) [1] | binding signal (SELEX z-score, GST-corrected) [2] | binding signal (SELEX z-score, GST-corrected) [3] | binding signal (SELEX z-score, GST-corrected) [4] | binding signal (SELEX z-score, GST-corrected) [5] | also measured
22 | AUACAU [6-mer ATACAT] | – | 3.08 | 2.8 | – | – | –
23 | AUAUAA [6-mer ATATAA] | 3.89 | – | – | – | – | –
24 | AUCACA [6-mer ATCACA] | – | – | – | 4.39 | 3.5 | –
25 | CAAACA [6-mer CAAACA] | – | – | – | 3.91 | – | –
26 | CAACAC [6-mer CAACAC] | – | – | – | 3.39 | – | –
27 | CAAUCA [6-mer CAATCA] | – | – | – | 5.47 | – | –
28 | CACAAC [6-mer CACAAC] | – | – | – | 3.4 | – | –
29 | CACACA [6-mer CACACA] | – | 4.01 | 3.36 | 6.79 | 4.75 | –
30 | CACAUA [6-mer CACATA] | – | 3.62 | 3.19 | – | – | –
31 | CAUACA [6-mer CATACA] | – | 3.49 | 2.86 | 3.6 | 3.76 | –
32 | CAUCAC [6-mer CATCAC] | – | – | – | – | 3.28 | –
33 | CAUCAU [6-mer CATCAT] | – | – | – | – | 3.65 | –
34 | CAUUCA [6-mer CATTCA] | – | – | – | 3.79 | 3.36 | –
35 | CGGCAC [6-mer CGGCAC] | – | – | 2.99 | – | 4.28 | –
36 | CGGCCA [6-mer CGGCCA] | – | – | 2.71 | – | – | –
37 | GCACAC [6-mer GCACAC] | – | – | – | – | 3.25 | –
38 | GGCACA [6-mer GGCACA] | 3.69 | – | 3.92 | – | 4.85 | –
39 | GGCAUC [6-mer GGCATC] | – | – | – | – | 3.48 | –
40 | GUCGGC [6-mer GTCGGC] | – | – | – | – | 3.3 | –
41 | HMGA2 WT | – | – | – | – | – | Kd [6]: 13.1 nM
42 | UACACA [6-mer TACACA] | – | 2.92 | – | – | – | –
